In assay [1] the target is hGW182 ABD (455–841) with motif-2 and the hook deleted (human) (UniProt Q8NDV7). Kind of assay: SEC.
In assay [2] the target is hGW182 ABD (455–841) with motif-1 deleted (human) (UniProt Q8NDV7). The assay can be described thus: SEC.
The target in assay [3] is hGW182 ABD (455–841) with motif-1 and the hook deleted (human) (UniProt Q8NDV7). Kind of assay: SEC.
Assay [4] has as its target hGW182 ABD (455–841) with the hook deleted (human) (UniProt Q8NDV7). Kind of assay: SEC.
Assay [5] concerns the target hGW182 ABD (455–841) with motif-1 and motif-2 deleted (human) (UniProt Q8NDV7). Kind of assay: SEC.
Assay [6] has as its target hGW182 ABD (455–841), tandem tryptophans of motif-2 and the hook mutated to alanine (human) (UniProt Q8NDV7). The assay can be described thus: pull-down.
Assay [7] concerns the target hGW182 ABD (455–841), tandem tryptophans of motif-1 and the hook mutated to alanine (human) (UniProt Q8NDV7). Kind of assay: pull-down.

Among the data in publication PMC5915679 are stoichiometry N and percent reduction of binding against the wild-type ABD values, retold here.

In the case of “human Argonaute-2 (from UniProt Q9UKV8 1-859) (natural protein)”, the stoichiometry N in assay [1] came out at 1; in assay [2], 2; in assay [3], 1; in assay [4], 2; in assay [5] it was 1. Also, the percent reduction of binding against the wild-type ABD in assay [6] and in assay [7] was < 10% throughout.
